# Target: HA-tagged C-terminal region of CaV1.3α (aa 1509–2203) (rat) (UniProt P27732)
# UniProt P27732, sequence (P27732 1509-2203): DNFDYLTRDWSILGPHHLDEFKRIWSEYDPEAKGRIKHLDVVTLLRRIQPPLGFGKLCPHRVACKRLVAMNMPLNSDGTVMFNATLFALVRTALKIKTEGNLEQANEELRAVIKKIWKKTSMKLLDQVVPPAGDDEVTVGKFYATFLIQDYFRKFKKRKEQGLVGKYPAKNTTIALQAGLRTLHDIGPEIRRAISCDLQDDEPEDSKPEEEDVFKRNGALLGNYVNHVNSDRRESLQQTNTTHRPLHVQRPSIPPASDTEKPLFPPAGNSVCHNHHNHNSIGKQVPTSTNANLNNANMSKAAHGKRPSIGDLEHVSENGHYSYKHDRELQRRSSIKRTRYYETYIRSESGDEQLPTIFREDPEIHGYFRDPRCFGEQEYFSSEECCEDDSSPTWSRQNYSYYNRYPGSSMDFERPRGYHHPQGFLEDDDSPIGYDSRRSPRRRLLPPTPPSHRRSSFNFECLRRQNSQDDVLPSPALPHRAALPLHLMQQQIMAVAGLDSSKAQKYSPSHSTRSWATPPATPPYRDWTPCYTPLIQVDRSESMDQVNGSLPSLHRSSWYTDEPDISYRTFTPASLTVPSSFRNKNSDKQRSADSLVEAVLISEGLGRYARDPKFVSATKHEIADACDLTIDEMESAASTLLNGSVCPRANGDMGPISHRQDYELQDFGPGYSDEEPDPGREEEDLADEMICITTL
substance,measurement,value
full-length untagged RIM2α (from UniProt Q9EQZ7-1 1-1530) (natural protein),shift of the voltage-dependence of CaV1.3 channel activation in HEK293/SK3-1 cells co-expressing RIM2α,3 mV
